Source: patent publication US20150313990A1

Experiments:
[1] = biological target: BaL Pro 2.0 (HIV-1 BaL gp160 with a proline inserted between Tyr 173 and Ala 174) on HeLa cells (HIV-1 BaL)
[2] = biological target: wild-type full-length HIV-1 BaL envelope glycoprotein gp160 expressed on the surface of HeLa cells (untreated) (HIV-1 BaL)
[3] = biological target: native HIV-1 BaL envelope trimers on the surface of persistently infected human T cells (PM1) (HIV-1 BaL)
[4] = biological target: native HIV-1 BaL envelope trimers on the surface of persistently infected human T cells (PM1) (HIV-1 BaL); assay: flow cytometry on infected PM1 cells pre-incubated with control buffer, PE anti-human IgG; panel header 'PM1 HT-pg9 25'
[5] = biological target: native HIV-1 BaL envelope trimers on the surface of persistently infected human T cells (PM1) (HIV-1 BaL); assay: flow cytometry on infected PM1 cells pre-incubated with sCD4 5 µg/ml (competitor, two-domain by the panel header) before PG9

Row | Substance | Geom. Mean, Comp-PE-A [1] | Geom. Mean, Comp-PE-A [2] | Geom. Mean, Comp-PE-A (ΔV1V2) | MFI [3] | Mean fluorescence intensity (MFI) [4] | change of the MFI with sCD4 [5] [%]
1 | antibody 48d (CD4-induced epitope) | 244 | 484 | 240 |  |  | 
2 | monoclonal antibody PG9 (directed to the α-helix-containing region of V2; trimer-preferring) |  |  |  | 2220 | 5210 | -58
3 | NC human | 129 | 139 | 152 |  |  | 
